From CN117700556A (SUZHOU ABCARTA MEDICAL TECH CO LTD; XIANGYA HOSPITAL …, dated 2024)

Legend:
[1] = target: T1, 叶酸受体α(Folate receptor alpha，FRα) (human, UniProt P15328 25-234); experiment: immunohistochemistry on FFPE ovarian and breast cancer tissue, antibody at 0.5 μg/mL
T1 construct: whole, on cells; also called FRα蛋白

[2] = target: T2, FRα抗原(SEQ ID NO:1)合成多肽; experiment: ELISA screening of hybridoma clones on the SEQ ID NO:1 peptide
T2 construct: KLH-coupled for immunisation; also called FRα的多肽
T2 peptide: RIAWARTELLNV

T1 sequence (P15328 25-234): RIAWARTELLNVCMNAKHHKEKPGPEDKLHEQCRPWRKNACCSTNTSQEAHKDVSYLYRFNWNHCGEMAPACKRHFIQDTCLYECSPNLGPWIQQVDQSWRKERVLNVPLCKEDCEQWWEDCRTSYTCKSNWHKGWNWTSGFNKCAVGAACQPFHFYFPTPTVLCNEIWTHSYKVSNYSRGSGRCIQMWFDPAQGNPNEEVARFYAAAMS

- binding result [1]: binds
- binding result [2]: binds
B1: 436I6G8抗FRα小鼠单克隆抗体 (antibody, V domains shown)
VH: EVQLQQSGVELVRSGASVKVSCTPSGFNIKDYFINWVKQRPEQGLEWIGWIDPENGDTEYAPKFQGKATMTADTSSNTAYLQLSSLTSEDTAVYYCYAERVVYWGQGTLITVSA
VL: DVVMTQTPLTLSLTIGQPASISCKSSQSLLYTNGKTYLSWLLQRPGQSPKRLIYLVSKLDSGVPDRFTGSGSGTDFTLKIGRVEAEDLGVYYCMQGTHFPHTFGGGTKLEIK
notes: Variable regions were cloned into InvivoGen pFUSE-CHIg-mG1 and pFUSE2-CLIg-mK (mouse IgG1 heavy, mouse kappa light constant regions); also called 436I6G8克隆的FRα小鼠单克隆抗体; 436I6G8抗FRα单克隆抗体
